Experimental findings from patent US20250277029A1 (Amgen, published 2025) are described below.

Test [1] addresses T1, GFP-fused huCB1-SMALP (human, UniProt P21554 1-472).
T1 construct: Human CB1 fused to GFP in styrene maleic acid lipoparticles, made as in Luna et al. 2018; also called huCB1-GFP-SMALP; GFP-tagged huCB1-SMALP; not shown: GFP fused to huCB1
The test can be described thus: flow cytometry, yeast-displayed Fab, 5 nM CB1 SMALP.

The target of a further test is T2, His-tagged huCB1-ND (human, UniProt P21554 99-414, limits assumed).
T2 construct: The real construct may be truncated or engineered; also called CB1-nanodisc; not shown: histidine purification tag
T2 sequence (P21554 99-414 limits assumed): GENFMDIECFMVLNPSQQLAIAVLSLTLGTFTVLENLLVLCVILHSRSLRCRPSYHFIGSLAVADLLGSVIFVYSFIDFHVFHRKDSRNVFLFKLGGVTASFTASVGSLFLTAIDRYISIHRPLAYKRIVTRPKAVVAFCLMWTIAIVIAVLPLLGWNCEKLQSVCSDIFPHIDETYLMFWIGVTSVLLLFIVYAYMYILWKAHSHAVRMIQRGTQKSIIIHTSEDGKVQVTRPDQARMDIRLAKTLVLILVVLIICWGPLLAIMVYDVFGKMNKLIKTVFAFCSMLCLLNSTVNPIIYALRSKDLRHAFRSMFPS
As to the kind of experiment: flow cytometry, yeast-displayed Fab, 0.5 nM CB1 ND.

The target in a further test is T3, Empty ND.
T3 construct: It carries no receptor; the scaffold is its only protein; also called empty nanodisc
As to the kind of experiment: flow cytometry, yeast-displayed Fab, 50 nM Empty ND.

Test [2] concerns the target T1, GFP-fused huCB1-SMALP. The test can be described thus: flow cytometry, yeast-displayed Fab, 10 nM CB1 SMALP.
Test [3] concerns the target human CB1 on stably transfected CB1 CHO cells (human, UniProt P21554 1-472). The test can be described thus: cell-based or functional assay.

T1 sequence (P21554 whole entry, the tested form may be a part): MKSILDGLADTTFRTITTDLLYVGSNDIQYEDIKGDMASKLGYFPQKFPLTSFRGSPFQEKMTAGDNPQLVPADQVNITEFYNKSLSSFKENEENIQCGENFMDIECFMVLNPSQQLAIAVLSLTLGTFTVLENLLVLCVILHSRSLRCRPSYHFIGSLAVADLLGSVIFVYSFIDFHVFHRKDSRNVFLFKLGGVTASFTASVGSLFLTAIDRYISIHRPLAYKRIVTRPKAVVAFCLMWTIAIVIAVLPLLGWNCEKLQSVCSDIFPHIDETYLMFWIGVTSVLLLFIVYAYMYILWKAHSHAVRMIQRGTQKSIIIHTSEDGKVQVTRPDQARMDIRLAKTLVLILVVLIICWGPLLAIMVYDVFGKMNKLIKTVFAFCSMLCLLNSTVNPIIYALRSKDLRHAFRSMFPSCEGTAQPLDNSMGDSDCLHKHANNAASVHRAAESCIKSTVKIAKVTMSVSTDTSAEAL
human CB1 on stably transfected CB1 CHO cells, sequence (P21554 whole entry): as the sequence (P21554 whole entry, the tested form may be a part) above

B1: LIBC673965-1 (Fab on yeast) (Fab, V domains shown)
VH: QVQLQESGPGLVKPSQTLSLTCTVSGGSIRRGGDYWSWIRQHPGKGLEWIGHVYYTGQTAYNPSLRGRVRISVNTYKNQFSLKLSSVTAADTAVYYCARGYDTSGYSYYYYGLDVWGQGTTVTVSS
VL: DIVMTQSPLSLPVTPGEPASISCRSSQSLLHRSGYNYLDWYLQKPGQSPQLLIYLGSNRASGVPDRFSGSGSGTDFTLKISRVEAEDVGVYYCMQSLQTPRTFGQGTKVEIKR
notes: Clone of the Fab-yeast libraries
With B1, the “relative binding fold change compared to LIBC523797-1(Fab)” value (“relative binding fold change” for short) worked out at 1.3 fold with GFP-fused huCB1-SMALP [1], 0.65 fold with His-tagged huCB1-ND, 0.43 fold with Empty ND and 2.5 fold with GFP-fused huCB1-SMALP [2].

B2: LIBC674257-1 (Fab on yeast) (Fab, V domains shown)
VH: QVQLQESGPGLVKPSQTLSLTCTVSGGSIRRGGDYWSWIRQHPGKGLEWIGHIYYTGQTKYNPSLRGRVRISVNTYKNQFSLKLSSVTAADTAVYYCARGYDISGYSYYYYGLDVWGQGTTVTVSS
VL: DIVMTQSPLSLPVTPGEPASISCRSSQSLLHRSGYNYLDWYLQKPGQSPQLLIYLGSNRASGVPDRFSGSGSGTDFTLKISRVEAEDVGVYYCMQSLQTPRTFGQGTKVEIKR
notes: as for B1
As to B2, the “relative binding fold change” value with GFP-fused huCB1-SMALP [1] was determined as 1.19 fold; with His-tagged huCB1-ND, 1.86 fold; with Empty ND, 0.73 fold; with GFP-fused huCB1-SMALP [2], 3.34 fold.

B3: LIBC674035-1 (Fab on yeast) (Fab, V domains shown)
VH: QVQLQESGPGLVKPSQTLSLTCTVSGGSIRRGGDYWSWIRQHPGKGLEWIGHIYYAGQTKYNPSFKNRVRISVNTYKNQFSLKLSSVTAADTAVYYCARGYDISGYSYYYYGLDVWGQGTTVTVSS
VL: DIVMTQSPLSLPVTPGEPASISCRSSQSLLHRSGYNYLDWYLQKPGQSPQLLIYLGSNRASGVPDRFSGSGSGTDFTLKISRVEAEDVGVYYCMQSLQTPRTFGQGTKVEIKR
notes: as for B1
With B3, the “relative binding fold change” value with GFP-fused huCB1-SMALP [1] turned out to be 1.29 fold; in the test with His-tagged huCB1-ND it was 0.52 fold; in the test with Empty ND, 0.56 fold; with GFP-fused huCB1-SMALP [2] it was 2.74 fold.

B4: LIBC674090-1 (Fab on yeast) (Fab, V domains shown)
VH: QVQLQESGPGLVKPSQTLSLTCTVSGGSIRRGGDYWSWIRQHPGKGLEWIGHIYYAGSTAYNPNFRGRVRISVNTYKNQFSLKLSSVTAADTAVYYCARGYDTSGYSYYYYGLDVWGQGTTVTVSS
VL: DIVMTQSPLSLPVTPGEPASISCRSSQSLLHRSGYNYLDWYLQKPGQSPQLLIYQGSNRASGVPDRFSGSGSGTDFTLKISRVEAEDVGVYYCMQSLQTPRTFGQGTKVEIKR
notes: as for B1
For the molecule B4, the “relative binding fold change” value is 1.2 fold in the test with GFP-fused huCB1-SMALP [1], 1.35 fold in the test with His-tagged huCB1-ND, 0.99 fold with Empty ND and 2.85 fold with GFP-fused huCB1-SMALP [2].

B5: LIBC674200-1 (Fab on yeast) (Fab, V domains shown)
VH: QVQLQESGPGLVKPSQTLSLTCTVSGGSIRRGGDYWSWIRQHPGKGLEWIGHVYYTGQTAYNPNFRNRVRISVNTYKNQFSLKLSSVTAADTAVYYCARGYDVSGYSYYYYGMDVWGQGTTVTVSS
VL: DIVMTQSPLSLPVTPGEPASISCRSSQSLLHRSGYNYLDWYLQKPGQSPQLLIYLGSNRASGVPGRFSGSGSGTDFTLKISRVEAEDVGVYYCMQSLQTPRTFGQGTKVEIKR
notes: Original clone of the Fab-yeast libraries, without the LC G76D reversion
For the molecule B5, the “relative binding fold change” value with GFP-fused huCB1-SMALP [1] came out at 1.33 fold; with His-tagged huCB1-ND it was 2.08 fold; with Empty ND it was 0.74 fold; with GFP-fused huCB1-SMALP [2] it was 3.31 fold.

B6: LIBC674235-1 (Fab on yeast) (Fab, V domains shown)
VH: QVQLQESGPGLVKPSQTLSLTCTVSGGSIRRGGDYWSWIRQHPGKGLEWIGHVYYAGSTTYNPSLKSRVRISVNTYKNQFSLKLSSVTAADTAVYYCARGYDVSGYSYYYYGLDVWGQGTTVTVSS
VL: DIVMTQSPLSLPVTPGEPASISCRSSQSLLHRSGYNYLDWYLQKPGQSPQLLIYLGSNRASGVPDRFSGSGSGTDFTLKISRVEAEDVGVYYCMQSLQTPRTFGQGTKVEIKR
notes: as for B1
Take B6: the “relative binding fold change” value was 1.3 fold in the test with GFP-fused huCB1-SMALP [1], 1.28 fold in the test with His-tagged huCB1-ND, 0.72 fold with Empty ND and 2.05 fold with GFP-fused huCB1-SMALP [2].

B7: LIBC674043-1 (Fab on yeast) (Fab, V domains shown)
VH: QVQLQESGPGLVKPSQTLSLTCTVSGGSIRRGGDYWSWIRQHPGKGLEWIGHIYYTGQTTYNPNFKGRVRISVNTYKNQFSLKLSSVTAADTAVYYCARGYDASGYSYYYYGMDVWGQGTTVTVSR
VL: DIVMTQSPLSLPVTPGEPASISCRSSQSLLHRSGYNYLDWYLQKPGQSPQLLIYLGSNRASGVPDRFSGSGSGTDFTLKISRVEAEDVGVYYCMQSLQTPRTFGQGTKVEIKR
notes: Original clone of the Fab-yeast libraries, without the R149S reversion
For B7, the “relative binding fold change” value with GFP-fused huCB1-SMALP [1] was determined as 1.2 fold; with His-tagged huCB1-ND, 1.85 fold; with Empty ND, 0.75 fold; with GFP-fused huCB1-SMALP [2] it was 3.23 fold.

B8: LIBC674216-1 (Fab on yeast) (Fab, V domains shown)
VH: QVQLQESGPGLVKPSQTLSLTCTVSGGSIRRGGDYWSWIRQHPGKGLEWIGHIYYTGQTAYNPSLRNRVRISVNTYKNQFSLKLSSVTAADTAVYYCARGYDISGYSYYYYGLDVWGQGTTVTVSS
VL: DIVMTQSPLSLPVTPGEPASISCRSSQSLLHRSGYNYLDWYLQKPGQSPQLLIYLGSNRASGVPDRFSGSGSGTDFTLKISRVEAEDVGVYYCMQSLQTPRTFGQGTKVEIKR
notes: as for B1
With B8, the “relative binding fold change” value in the test with GFP-fused huCB1-SMALP [1] was 1.1 fold; with His-tagged huCB1-ND, 1.66 fold; with Empty ND, 0.65 fold; with GFP-fused huCB1-SMALP [2], 1.96 fold.

B9: LIBC673972-1 (Fab on yeast) (Fab, V domains shown)
VH: QVQLQESGPGLVKPSQTLSLTCTVSGGSIRRGGDYWSWIRQHPGKGLEWIGHIYYTGQTAYNPNLRNRVRISVNTYKNQFSLKLSSVTAADTAVYYCARGYDASGYSYYYYGLDVWGQGTTVTVSS
VL: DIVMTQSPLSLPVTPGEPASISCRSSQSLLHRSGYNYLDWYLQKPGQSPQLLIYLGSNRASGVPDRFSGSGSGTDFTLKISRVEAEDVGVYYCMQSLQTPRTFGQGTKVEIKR
notes: as for B1
With B9, the “relative binding fold change” value with GFP-fused huCB1-SMALP [1] was determined as 1.46 fold; with His-tagged huCB1-ND, 0.63 fold; in the test with Empty ND, 0.4 fold; with GFP-fused huCB1-SMALP [2], 2.46 fold.

B10: LIBC674229-1 (Fab on yeast) (Fab, V domains shown)
VH: QVQLQESGPGLVKPSQTLSLTCTVSGGSIRRGGDYWSWIRQHPGKGLEWIGHIYQTGQTKYNPSFKGRVRISVNTYKNQFSLKLSSVTAADTAVYYCARGYDVSGYSYYYYGMDVWGQGTTVTVSS
VL: DIVMTQSPLSLPVTPGEPASISCRSSQSLLHRSGYNYLDWYLQKPGQSPQLLIYQGSNRASGVPDRFSGSGSGTDFTLKISRVEAEDVGVYYCMQSLQTPRTFGQGTKVEIKR
notes: as for B1
Take B10: the “relative binding fold change” value with GFP-fused huCB1-SMALP [1] is 1.11 fold; with His-tagged huCB1-ND, 2.22 fold; with Empty ND it was 0.75 fold; with GFP-fused huCB1-SMALP [2] it was 3.17 fold.

B11: LIBC674276-1 (Fab on yeast) (Fab, V domains shown)
VH: QVQLQESGPGLVKPSQTLSLTCTVSGGSIRRGGDYWSWIRQHPGKGLEWIGHVYYTGSTTYNPNFKGRVRISVNTYKNQFSLKLSSVTAADTAVYYCARGYDASGYSYYYYGLDVWGQGTTVTVSS
VL: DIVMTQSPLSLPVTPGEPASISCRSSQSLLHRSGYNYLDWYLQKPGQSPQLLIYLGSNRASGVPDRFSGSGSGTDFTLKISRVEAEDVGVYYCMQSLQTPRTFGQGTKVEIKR
notes: as for B1
As for B11, the “relative binding fold change” value in the test with GFP-fused huCB1-SMALP [1] worked out at 1.17 fold; in the test with His-tagged huCB1-ND it was 2.04 fold; in the test with Empty ND, 0.51 fold; in the test with GFP-fused huCB1-SMALP [2], 2.06 fold.

B12: LIBC674214-1 (Fab on yeast) (Fab, V domains shown)
VH: QVQLQESGPGLVKPSQTLSLTCTVSGGSIRRGGDYWSWIRQHPGKGLEWIGHVYYEGSTKYNPSFRGRVRISVNTYKNQFSLKLSSVTAADTAVYYCARGYDVSGYSYYYYGLDVWGQGTTVTVSS
VL: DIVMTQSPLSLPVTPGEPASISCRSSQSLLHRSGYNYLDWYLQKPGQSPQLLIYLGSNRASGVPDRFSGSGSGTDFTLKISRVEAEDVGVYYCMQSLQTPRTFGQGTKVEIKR
notes: as for B1
In the case of B12, the “relative binding fold change” value with GFP-fused huCB1-SMALP [1] was 1.17 fold; with His-tagged huCB1-ND, 1.76 fold; in the test with Empty ND it was 1.09 fold; with GFP-fused huCB1-SMALP [2], 2.1 fold.

B13: LIBC674024-1 (Fab on yeast) (Fab, V domains shown)
VH: QVQLQESGPGLVKPSQTLSLTCTVSGGSIRRGGDYWSWIRQHPGKGLEWIGHVYQTGSTKYNPSFKNRVRISVNTYKNQFSLKLSSVTAADTAVYYCARGYDVSGYSYYYYGLDVWGQGTTVTVSS
VL: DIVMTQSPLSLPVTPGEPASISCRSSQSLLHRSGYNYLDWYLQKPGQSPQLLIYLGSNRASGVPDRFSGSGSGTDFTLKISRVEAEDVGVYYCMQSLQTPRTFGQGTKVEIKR
notes: as for B1
Regarding B13, the “relative binding fold change” value with GFP-fused huCB1-SMALP [1] stood at 1.24 fold; with His-tagged huCB1-ND, 0.49 fold; in the test with Empty ND it was 0.55 fold; in the test with GFP-fused huCB1-SMALP [2] it was 2.39 fold.

B14: LIBC673982-1 (Fab on yeast) (Fab, V domains shown)
VH: QVQLQESGPGLVKPSQTLSLTCTVSGGSIRRGGDYWSWIRQHPGKGLEWIGHIYYTGSTTYNPSFRGRVRISVNTYKNQFSLKLSSVTAADTAVYYCARDYDISGYSYYYYGMDVWGQGTTVTVSS
VL: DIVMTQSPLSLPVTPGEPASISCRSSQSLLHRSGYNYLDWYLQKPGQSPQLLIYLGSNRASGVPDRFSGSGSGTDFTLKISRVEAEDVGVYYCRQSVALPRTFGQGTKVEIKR
notes: as for B1
In the case of B14, the “relative binding fold change” value came to 1.24 fold in the test with GFP-fused huCB1-SMALP [1], 0.78 fold with His-tagged huCB1-ND, 0.6 fold with Empty ND and 2.16 fold with GFP-fused huCB1-SMALP [2].

B15: LIBC674002-1 (Fab on yeast) (Fab, V domains shown)
VH: QVQLQESGPGLVKPSQTLSLTCTVSGGSIRRGGDYWSWIRQHPGKGLEWIGHIYYKGSTEYNPSLRGRVRISVNTYKNQFSLKLSSVTAADTAVYYCARGYDVSGYSYYYYGLDVWGQGTTVTVSS
VL: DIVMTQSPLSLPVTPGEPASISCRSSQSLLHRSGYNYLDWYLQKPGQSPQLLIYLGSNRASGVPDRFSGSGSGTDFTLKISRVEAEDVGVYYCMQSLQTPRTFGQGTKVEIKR
notes: as for B1
As to B15, the “relative binding fold change” value came out at 1.49 fold with GFP-fused huCB1-SMALP [1], 0.46 fold with His-tagged huCB1-ND, 0.03 fold with Empty ND and 2.59 fold with GFP-fused huCB1-SMALP [2].

B16: LIBC673952-1 (IgG1 SEFL2 mAb) (antibody, V domains shown)
VH: QVQLQESGPGLVKPSQTLSLTCTVSGGSIRRGGDYWSWIRQHPGKGLEWIGHVYYTGQTTYNPSFRGRVTISVNTYKNQFSLKLSSVTAADTAVYYCARDYDILTGYSYYYYGLDVWGQGTTVTVSS
VL: DIVMTQSPLSLPVTPGEPASISCRSSQSLLHRSGYNYLDWYLQKPGQSPQLLIYQGSNRASGVPDRFSGSGSGTDFTLKISRVEAEDVGVYYCRQARALPRTFGQGTKVEIKR
B16: the “IC50 (nM, n = 4), antagonist activity, TR-FRET cAMP assay” value in test [3] came out at 2.48 nM.

B17: LIBC673952-1 (Fab on yeast) (Fab, V domains shown)
VH: QVQLQESGPGLVKPSQTLSLTCTVSGGSIRRGGDYWSWIRQHPGKGLEWIGHVYYTGQTTYNPSFRGRVTISVNTYKNQFSLKLSSVTAADTAVYYCARDYDILTGYSYYYYGLDVWGQGTTVTVSS
VL: DIVMTQSPLSLPVTPGEPASISCRSSQSLLHRSGYNYLDWYLQKPGQSPQLLIYQGSNRASGVPDRFSGSGSGTDFTLKISRVEAEDVGVYYCRQARALPRTFGQGTKVEIKR
notes: as for B1
As to B17, the “relative binding fold change” value in the test with GFP-fused huCB1-SMALP [1] amounted to 1.23 fold; in the test with His-tagged huCB1-ND, 0.77 fold; with Empty ND it was 0.62 fold; with GFP-fused huCB1-SMALP [2], 1.91 fold.
